Laboratory results from patent US20260356937 (published 2026).

B1: MK (antibody, V domains shown)
VH: EVQLQQWGAGLLKPSETLSLTCAVYGGSFSGYYWSWIRQPPGKGLEWIGEINHAGSTNYNPSLKSRVTISVDTSKNQFSLKLSSVTAADTAVYYCARLPTRWVTTRYFDLWGRGTLVTVSS
VL: ESVLTQPPSVSGAPGQRVTISCTGSSSNIGAGYDVHWYQQLPGTAPKLLIYGDSNRPSGVPDRFSVSKSGASASLAITGLQAEDEADYYCQSFDNSLSAYVFGGGTQLTVLG
B2: P2m (antibody, V domains shown)
VH: QVQLVQSGAEVKKPGSSVKVSCKASGYTFTSYDISWVRQAPGQGLEWMGGIIPIFGTANYAQKFQGRVTITADESTSTAYMELSSLRSEDTAVYYCTAGIFLATAYWGQGTLVTVSS
VL: DIQMTQSPSSMSASVGDRVTISCQASQDIQNYLNWYQQRPGQAPKLLIYDASTLETGVPSRFSGSGSGTYFTLTISSLQPEDVATYYCQQYENVPITFGQGTRLEIK
B3: huP2-C6 (antibody, V domains shown)
VH: EVQLVQSGAEVKKPGASVKVSCKASGYTFTDYYIHWVRQAPGQGLEWMGYIYPDTGYSGYNQKFKGRVTMTVDKSTSTAYMELRSLRSDDTAVYYCTRRGDYSGVHFDYWGQGTTVTVSS
VL: DIVLTQSPDSLAVSLGERATINCRASESVNNYGVGFLHWYQQKPGQPPKLLIYRASTLESGIPDRFSGSGSGTDFTLTISSLQAEDVAVYYCQHSYKDPPWTFGGGTKVEIK
B4: huP2-G9 (antibody, V domains shown)
VH: EVQLQESGPGLVKPSQTLSLTCTVSGSSITSGYYWNWIRQHPGKGLEWIGYLSYDGSNNYNPSLKNLVTISRDTSKNQFSLKLSSVTAADTAVYYCAREGAHYSGTLSWFAYWGQGTLVTVSS
VL: DIQMTQSPSSLSASVGDRVTITCRASENIYSNLAWYQQKPGKSPKLLVYAATNLADGVPSRFSGSGSGTDYTLTISSLQPEDFATYYCQHFWDTPYTFGGGTKVEIK

Legend:
[1] = biological target: ILT4 (CHO-S/ILT4 cells) (human); assay: FACS, assay 4
[2] = biological target: ILT4 (CHO-S/ILT4 cells) (human); assay: FACS, assay 3
[3] = biological target: ILT4 (CHO-S/ILT4 cells) (human); assay: FACS, assay 2
[4] = biological target: ILT4 (CHO-S/ILT4 cells) (human); assay: FACS

Sequence of ILT4 (CHO-S/ILT4 cells) (human) (chain, as listed by the source): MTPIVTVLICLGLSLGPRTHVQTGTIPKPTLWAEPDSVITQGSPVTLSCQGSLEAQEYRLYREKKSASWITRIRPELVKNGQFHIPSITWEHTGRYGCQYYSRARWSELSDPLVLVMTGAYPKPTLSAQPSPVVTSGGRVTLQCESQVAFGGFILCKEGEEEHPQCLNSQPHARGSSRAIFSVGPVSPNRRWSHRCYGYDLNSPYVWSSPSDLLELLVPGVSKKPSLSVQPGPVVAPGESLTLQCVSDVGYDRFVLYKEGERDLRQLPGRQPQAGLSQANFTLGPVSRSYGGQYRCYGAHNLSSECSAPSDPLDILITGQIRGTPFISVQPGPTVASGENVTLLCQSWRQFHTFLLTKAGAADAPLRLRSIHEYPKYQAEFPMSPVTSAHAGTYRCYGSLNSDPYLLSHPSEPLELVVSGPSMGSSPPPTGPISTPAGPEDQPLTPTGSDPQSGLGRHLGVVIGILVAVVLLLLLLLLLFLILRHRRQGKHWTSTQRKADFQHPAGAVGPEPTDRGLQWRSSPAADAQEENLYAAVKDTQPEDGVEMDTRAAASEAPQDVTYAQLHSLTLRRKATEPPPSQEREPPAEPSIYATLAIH

EC50 [1] [µg/mL]	EC50 [2] [µg/mL]	EC50 [3] [µg/mL]	EC50 [4] [µg/mL]	Binder
0.0139	0.301	0.0415		B1
			0.0163	B2
			0.0368	B3
			0.045	B4
